Assay results published in US20110300138A1 (published 2011).

Key:
[1] = biological target: TSH receptor (full length human TSHR) coated on tubes (human) (UniProt P16473); assay: 125I-TSH binding inhibition read against NIBSC 90/672; mean over 10, 30 and 100 ng/mL, in assay buffer
[2] = biological target: thyroid stimulating hormone receptor (TSHR), full length human TSHR (human) (UniProt P16473); assay: TSH-biotin competition ELISA, TSHR coated wells; negative control, 100 µg/mL in HBD serum
[3] = biological target: thyroid stimulating hormone receptor (TSHR), full length human TSHR (human) (UniProt P16473); assay: TSH-biotin competition ELISA, TSHR coated wells; negative control, 0.01 µg/mL in assay buffer
[4] = biological target: TSH receptor (TSHR) coated on tubes (human) (UniProt P16473); assay: inhibition of 125I-K1-70 IgG binding to TSHR coated tubes; negative control 10 µg/mL in assay buffer
[5] = biological target: TSH receptor (TSHR) coated on tubes (human) (UniProt P16473); assay: inhibition of 125I-K1-70 IgG binding to TSHR coated tubes; negative control 100 µg/mL in assay buffer
[6] = biological target: TSH receptor (TSHR) coated on tubes (human) (UniProt P16473); assay: inhibition of 125I-K1-70 IgG binding to TSHR coated tubes; negative control 10 µg/mL in HBD serum pool
[7] = biological target: human thyroid stimulating hormone receptor (TSHR), full length (human) (UniProt P16473); assay: 125I-K1-70 Fab (competitor) binding to TSHR coated tubes; negative control MAb 0.01 µg/mL in HBD serum
[8] = biological target: human TSH receptor (full length) coated on ELISA plate wells (human) (UniProt P16473); assay: TSH-biotin binding inhibition ELISA, TSHR coated wells; 1 µg/mL in HBD serum pool; negative control MAb
[9] = biological target: TSH receptor (TSHR), full length human, coated on tubes (human) (UniProt P16473); assay: inhibition of 125I-K1-18 IgG binding to TSHR coated tubes; competitor 125I-K1-18 IgG; negative control sample at 1 µg/mL in HBD serum
[10] = biological target: TSH receptor (full length human TSHR) (human) (UniProt P16473); assay: competition ELISA: inhibition of M22 Fab-peroxidase (competitor) binding to TSHR coated wells; negative control at 100 µg/mL diluted in assay buffer
[11] = biological target: TSH receptor (full length human TSHR) (human) (UniProt P16473); assay: competition ELISA: inhibition of M22 Fab-peroxidase (competitor) binding to TSHR coated wells; negative control at 0.1 µg/mL diluted in HBD serum pool
[12] = biological target: TSHR with Lys129 mutated to Ala, expressed in CHO cells (human) (UniProt P16473); assay: cell-based or functional assay
[13] = biological target: wild type TSHR (human TSH receptor) expressed in CHO cells (human) (UniProt P16473); assay: cell-based or functional assay
[14] = biological target: TSHR (thyroid stimulating hormone receptor), full length human (human) (UniProt P16473); assay: competitor ^125I-K1-70 IgG, TSHR coated tubes; 100 µg/mL in assay buffer
[15] = biological target: TSHR (full length) coated on tubes (human) (UniProt P16473); assay: inhibition of 125I-K1-18 Fab (competitor) binding to TSHR coated tubes; test sample 100 µg/mL in assay buffer
[16] = biological target: TSHR (full length) coated on tubes (human) (UniProt P16473); assay: inhibition of 125I-K1-18 Fab (competitor) binding to TSHR coated tubes; test sample 0.01 µg/mL in assay buffer
[17] = biological target: TSH receptor (TSHR), full length human, coated on tubes (human) (UniProt P16473); assay: inhibition of 125I-K1-18 IgG binding to TSHR coated tubes; competitor 125I-K1-18 IgG; sample at 100 µg/mL in assay buffer
[18] = biological target: TSH receptor (full length human TSHR) (human) (UniProt P16473); assay: competition ELISA: inhibition of M22 Fab-peroxidase (competitor) binding to TSHR coated wells; test sample at 10 µg/mL diluted in assay buffer
[19] = biological target: TSH receptor (full length human TSHR) (human) (UniProt P16473); assay: competition ELISA: inhibition of M22 Fab-peroxidase (competitor) binding to TSHR coated wells; test sample at 100 µg/mL diluted in assay buffer
[20] = biological target: human thyroid stimulating hormone receptor (TSHR), full length (human) (UniProt P16473); assay: 125I-K1-18 Fab competition, TSHR coated tubes; 1 µg/mL in assay buffer
[21] = biological target: human thyroid stimulating hormone receptor (TSHR), full length (human) (UniProt P16473); assay: 125I-K1-18 Fab competition, TSHR coated tubes; 0.01 µg/mL in assay buffer
[22] = biological target: human TSH receptor (full length) coated on ELISA plate wells (human) (UniProt P16473); assay: TSH-biotin binding inhibition ELISA, TSHR coated wells; 1 µg/mL in assay buffer
[23] = biological target: TSH receptor (TSHR), full length human, coated on tubes (human) (UniProt P16473); assay: inhibition of 125I-TSH binding to TSHR coated tubes; 1 µg/mL, diluted in assay buffer
[24] = biological target: TSH receptor (TSHR), full length human, coated on tubes (human) (UniProt P16473); assay: inhibition of 125I-TSH binding to TSHR coated tubes; 1 µg/mL, diluted in HBD serum pool
[25] = biological target: TSH receptor (TSHR), full length human, coated on tubes (human) (UniProt P16473); assay: inhibition of 125I-TSH binding to TSHR coated tubes; 100 µg/mL, diluted in HBD serum pool
[26] = biological target: thyroid stimulating hormone receptor (full length human TSHR) (human) (UniProt P16473); assay: ELISA, inhibition of TSH-biotin binding to TSHR coated wells; 0.1 µg/mL, diluted in HBD serum pool

Work on M22 IgG (antibody) yielded a mean units/mg [1] of 266 units/mg.

In the case of 5B3 IgG (antibody), the Inhibition of binding (%) [2] is reported as -2.3%, the Inhibition of binding (%) [3] is reported as -5.9% and the Inhibition of binding (%) [4] is reported as -2.1%. It also gave an Inhibition of binding (%) [5] of 15.2%, an Inhibition of binding (%) [6] of -0.7% and an Inhibition of binding (%) [7] of -5.3%. It also gave a % inhibition of TSH-biotin binding [8] of 8%, an Inhibition of binding (%) [9] of -6.2% and an Inhibition of binding (%) [10] of 8.1%. For the same molecule, the Inhibition of binding (%) [11] was 3%.

With TSH (ligand) the Cyclic AMP produced, mutated TSHR, TSH 0.01 ng/mL [12] was 2.69 pmol/mL, the Cyclic AMP produced, mutated TSHR, TSH 0.03 ng/mL [12] was 5.34 pmol/mL and the Cyclic AMP produced, mutated TSHR, TSH 0.1 ng/mL [12] was 12.7 pmol/mL. It also gave a Cyclic AMP produced, mutated TSHR, TSH 0.3 ng/mL [12] of 29 pmol/mL, a Cyclic AMP produced, mutated TSHR, TSH 1 ng/mL [12] of 40.8 pmol/mL and a Cyclic AMP produced, mutated TSHR, TSH 3 ng/mL [12] of 48.5 pmol/mL. For the same molecule, the Mutated/Wild type (%) of cyclic AMP produced, TSH 0.01 ng/mL [12] was 134%, the Mutated/Wild type (%) of cyclic AMP produced, TSH 0.03 ng/mL [12] was 161% and the Mutated/Wild type (%) of cyclic AMP produced, TSH 0.1 ng/mL [12] was 131%. It also gave a Mutated/Wild type (%) of cyclic AMP produced, TSH 0.3 ng/mL [12] of 111%, a Mutated/Wild type (%) of cyclic AMP produced, TSH 1 ng/mL [12] of 88% and a Mutated/wild type (%) of cyclic AMP produced; TSH 3 ng/mL [12] of 101%. It also gave a Cyclic AMP produced, wild type TSHR, TSH 0.01 ng/mL [13] of 2.01 pmol/mL, a Cyclic AMP produced, wild type TSHR, TSH 0.03 ng/mL [13] of 3.32 pmol/mL and a Cyclic AMP produced, wild type TSHR, TSH 0.1 ng/mL [13] of 9.69 pmol/mL. For the same molecule, the Cyclic AMP produced, wild type TSHR, TSH 0.3 ng/mL [13] was 26.1 pmol/mL, the Cyclic AMP produced, wild type TSHR, TSH 1 ng/mL [13] was 46.3 pmol/mL and the Cyclic AMP produced, wild type TSHR, TSH 3 ng/mL [13] was 48.1 pmol/mL.

Work on 9D33 IgG (antibody) yielded an Inhibition of binding (%) [14] of 61.4%, an Inhibition of binding (%) [15] of 81.5% and an Inhibition of binding (%) [16] of 7.9%. It also gave an Inhibition of binding (%) [17] of 72.5%, an Inhibition of binding (%) [18] of 64.2% and an Inhibition of binding (%) [19] of 64.1%.

B1: 5C9 IgG (antibody, from another filing, V domains shown)
VH: EVQLVESGGGLIQPGGSLRLSCAASGFTVSSNYMSWVRQAPGKGLEWVSVTYSGGSTSYADSVKGRFTISRDNSKNTLYLQMNSLRAEDTAVYYCARGGRYCSSISCYARSGCDYWGQGTLVTVSS
VL: AIQMTQSPSSLSASVGDRVTITCRASQSISNYLNWYQQKPGKAPKLLIYAASSLQSGVPSRFSGSGSGTDFTLTISSLQPEDFATYYCQQSYSSPSTTFGQGTKLEIK
Molecule B1 has an Inhibition of binding (%) [20] of 52.5%, an Inhibition of binding (%) [21] of 3% and a % inhibition of TSH-biotin binding [22] of 42.9%. For the same molecule, the Inhibition of binding (%) [23] was 38.7%, the Inhibition of binding (%) [24] was 24.8% and the Inhibition of binding (%) [25] was 59.2%. The Inhibition of binding (%) [26] was 10.4%.
